Assay results as given in patent publication US20050209141A1.

Key:
[1] = molecular target: angiotensin II receptor (AT1AR) transfected into human neuroblastoma SH-SY5Y cells (SH-SY5Y-AT1A cells); assay: cell-based or functional assay
[2] = molecular target: guinea pig angiotensin type 1 receptor on cardiac sympathetic nerve endings (guinea pig); assay: cell-based or functional assay
[3] = molecular target: T1, human angiotensinogen (Sigma), P01019
T1 chain: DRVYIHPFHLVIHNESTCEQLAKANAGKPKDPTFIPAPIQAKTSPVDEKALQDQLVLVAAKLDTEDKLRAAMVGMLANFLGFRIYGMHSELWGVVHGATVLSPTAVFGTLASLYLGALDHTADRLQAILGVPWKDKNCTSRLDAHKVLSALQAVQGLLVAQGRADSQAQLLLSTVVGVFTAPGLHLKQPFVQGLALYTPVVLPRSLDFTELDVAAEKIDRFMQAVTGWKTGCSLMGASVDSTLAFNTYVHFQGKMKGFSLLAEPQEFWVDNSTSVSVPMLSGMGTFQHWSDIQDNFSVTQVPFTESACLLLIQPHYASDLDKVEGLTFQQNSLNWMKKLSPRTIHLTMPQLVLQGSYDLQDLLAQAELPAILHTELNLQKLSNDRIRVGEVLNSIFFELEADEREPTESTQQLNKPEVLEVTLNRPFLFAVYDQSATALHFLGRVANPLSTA

In the case of angiotensin II (peptide), the release of [3H]MPP+ from SH-SY5Y-AT1A cells [1] is reported as 20% and the norepinephrine release from guinea-pig cardiac sympathetic nerve endings [2] is reported as 27%.

B1: human renin of the human mast cell line HMC-1 (cells, lysate and releasate) (protein)
chain: LTLGNTTSSVILTNYMDTQYYGEIGIGTPPQTFKVVFDTGSSNVWVPSSKCSRLYTACVYHKLFDASDSSSYKHNGTELTLRYSTGTVSGFLSQDIITVGGITVTQMFGEVTEMPALPFMLAEFDGVVGMGFIEQAIGRVTPIFDNIISQGVLKEDVFSFYYNRDSENSQSLGGQIVLGGSDPQHYEGNFHYINLIKTGVWQIQMKGVSVGSSTLLCEDGCLALVDTGASYISGSTSSIEKLMEALGAKKRLFDYVVKCNEGPTLPDISFHLGGKEYTLTSADYVFQESYSSKKLCTLAIHAMDIPPPTGPTWALGATFIRKFYTEFDRRNNRIGFALAR
For B1, the “ANG I activity of HMC-1 releasate with 240 nM angiotensinogen, with or without BILA2157” value [3] was “about 70% of the ANG I activity measured in the presence of 240 nM angiotensinogen, is due to BILA2157-sensitive renin”, the “ANG I formed (renin activity) by RIA” value [3] was “The amount of ANG I formed increased with angiotensinogen concentration” and the “ANG I formed (renin activity) by RIA, with or without BILA2157 (100 nM)” value [3] was “˜70% of the total ANG I formed originates from renin”.
